Test results published in publication PMC6454087.

Biological target: mouse rec1c sNASP variant protein (V281I, L282F) (mouse)
Experiment: BLI; Octet K2, 30 C; sNASP WT or variant immobilised on aminopropylsilane (APS) biosensors, histones in assay buffer at various concentrations (62.5 to 1,000 nM shown for H4), association 240 s; n = 4

| Kd [nM] | kon [M⁻¹ s⁻¹] | Substance |
| --- | --- | --- |
| 14.5 | 37200 | mouse H3.1/H4 tetramer complex (from UniProt P68433 1-136; P62806 1-103) |
| 23.2 | 15900 | mouse histone H4 (from UniProt P62806 1-103) (natural protein) |
